B1: ZDS1 S864: ZDS1, S864 to alanine (protein, UniProt P50111 1-915, looked up, variant S864A)
Protein ZDS1: MSNRDNESMLRTTSSDKAIASQRDKRKSEVLIAAQSLDNEIRSVKNLKRLSIGSMDLLIDPELDIKFGGESSGRRSWSGTTSSSASMPSDTTTVNNTRYSDPTPLENLHGRGNSGIESSNKTKQGNYLGIKKGVHSPSRKLNANVLKKNLLWVPANQHPNVKPDNFLELVQDTLQNIQLSDNGEDNDGNSNENNDIEDNGEDKESQSYENKENNTINLNRGLSRHGNASLIRRPSTLRRSYTEFDDNEDDDNKGDSASETVNKVEERISKIKERPVSLRDITEELTKISNSAGLTDNDAITLARTLSMAGSYSDKKDQPQPEGHYDEGDIGFSTSQANTLDDGEFASNMPINNTMTWPERSSLRRSRFNTYRIRSQEQEKEVEQSVDEMKNDDEERLKLTKNTIKVEIDPHKSPFRQQDEDSENMSSPGSIGDFQDIYNHYRQSSGEWEQEMGIEKEAEEVPVKVRNDTVEQDLELREGTTDMVKPSATDDNKETKRHRRRNGWTWLNNKMSREDDNEENQGDDENEENVDSQRMELDNSKKHYISLFNGGEKTEVSNKEEMNNSSTSTATSQTRQKIEKTFANLFRRKPHHKHDASSSPSSSPSSSPSIPNNDAVHVRVRKSKKLGNKSGREPVEPIVLRNRPRPHRHHHSRHGSQKISVKTLKDSQPQQQIPLQPQLEGAIEIEKKEESDSESLPQLQPAVSVSSTKSNSRDREEEEAKKKNKKRSNTTEISNQQHSKHVQKENTDEQKAQLQAPAQEQVQTSVPVQASAPVQNSAPVQTSAPVEASAQTQAPAAPPLKHTSILPPRKLTFADVKKPDKPNSPVQFTDSAFGFPLPLLTVSTVIMFDHRLPINVERAIYRLAHLKLSNSKRGLREQVLLSNFMYAYLNLVNHTLYMEQVAHDKEQQQQQQQQP
B2: ZDS1 H865: ZDS1, H865 to alanine (protein, UniProt P50111 1-915, looked up, variant H865A)
Protein ZDS1: MSNRDNESMLRTTSSDKAIASQRDKRKSEVLIAAQSLDNEIRSVKNLKRLSIGSMDLLIDPELDIKFGGESSGRRSWSGTTSSSASMPSDTTTVNNTRYSDPTPLENLHGRGNSGIESSNKTKQGNYLGIKKGVHSPSRKLNANVLKKNLLWVPANQHPNVKPDNFLELVQDTLQNIQLSDNGEDNDGNSNENNDIEDNGEDKESQSYENKENNTINLNRGLSRHGNASLIRRPSTLRRSYTEFDDNEDDDNKGDSASETVNKVEERISKIKERPVSLRDITEELTKISNSAGLTDNDAITLARTLSMAGSYSDKKDQPQPEGHYDEGDIGFSTSQANTLDDGEFASNMPINNTMTWPERSSLRRSRFNTYRIRSQEQEKEVEQSVDEMKNDDEERLKLTKNTIKVEIDPHKSPFRQQDEDSENMSSPGSIGDFQDIYNHYRQSSGEWEQEMGIEKEAEEVPVKVRNDTVEQDLELREGTTDMVKPSATDDNKETKRHRRRNGWTWLNNKMSREDDNEENQGDDENEENVDSQRMELDNSKKHYISLFNGGEKTEVSNKEEMNNSSTSTATSQTRQKIEKTFANLFRRKPHHKHDASSSPSSSPSSSPSIPNNDAVHVRVRKSKKLGNKSGREPVEPIVLRNRPRPHRHHHSRHGSQKISVKTLKDSQPQQQIPLQPQLEGAIEIEKKEESDSESLPQLQPAVSVSSTKSNSRDREEEEAKKKNKKRSNTTEISNQQHSKHVQKENTDEQKAQLQAPAQEQVQTSVPVQASAPVQNSAPVQTSAPVEASAQTQAPAAPPLKHTSILPPRKLTFADVKKPDKPNSPVQFTDSAFGFPLPLLTVSTVIMFDHRLPINVERAIYRLSALKLSNSKRGLREQVLLSNFMYAYLNLVNHTLYMEQVAHDKEQQQQQQQQP
B3: ZDS1 K867: ZDS1, K867 to alanine (protein, UniProt P50111 1-915, looked up, variant K867A)
Protein ZDS1: MSNRDNESMLRTTSSDKAIASQRDKRKSEVLIAAQSLDNEIRSVKNLKRLSIGSMDLLIDPELDIKFGGESSGRRSWSGTTSSSASMPSDTTTVNNTRYSDPTPLENLHGRGNSGIESSNKTKQGNYLGIKKGVHSPSRKLNANVLKKNLLWVPANQHPNVKPDNFLELVQDTLQNIQLSDNGEDNDGNSNENNDIEDNGEDKESQSYENKENNTINLNRGLSRHGNASLIRRPSTLRRSYTEFDDNEDDDNKGDSASETVNKVEERISKIKERPVSLRDITEELTKISNSAGLTDNDAITLARTLSMAGSYSDKKDQPQPEGHYDEGDIGFSTSQANTLDDGEFASNMPINNTMTWPERSSLRRSRFNTYRIRSQEQEKEVEQSVDEMKNDDEERLKLTKNTIKVEIDPHKSPFRQQDEDSENMSSPGSIGDFQDIYNHYRQSSGEWEQEMGIEKEAEEVPVKVRNDTVEQDLELREGTTDMVKPSATDDNKETKRHRRRNGWTWLNNKMSREDDNEENQGDDENEENVDSQRMELDNSKKHYISLFNGGEKTEVSNKEEMNNSSTSTATSQTRQKIEKTFANLFRRKPHHKHDASSSPSSSPSSSPSIPNNDAVHVRVRKSKKLGNKSGREPVEPIVLRNRPRPHRHHHSRHGSQKISVKTLKDSQPQQQIPLQPQLEGAIEIEKKEESDSESLPQLQPAVSVSSTKSNSRDREEEEAKKKNKKRSNTTEISNQQHSKHVQKENTDEQKAQLQAPAQEQVQTSVPVQASAPVQNSAPVQTSAPVEASAQTQAPAAPPLKHTSILPPRKLTFADVKKPDKPNSPVQFTDSAFGFPLPLLTVSTVIMFDHRLPINVERAIYRLSHLALSNSKRGLREQVLLSNFMYAYLNLVNHTLYMEQVAHDKEQQQQQQQQP
B4: ZDS1 L866: ZDS1, L866 to alanine (protein, UniProt P50111 1-915, looked up, variant L866A)
Protein ZDS1: MSNRDNESMLRTTSSDKAIASQRDKRKSEVLIAAQSLDNEIRSVKNLKRLSIGSMDLLIDPELDIKFGGESSGRRSWSGTTSSSASMPSDTTTVNNTRYSDPTPLENLHGRGNSGIESSNKTKQGNYLGIKKGVHSPSRKLNANVLKKNLLWVPANQHPNVKPDNFLELVQDTLQNIQLSDNGEDNDGNSNENNDIEDNGEDKESQSYENKENNTINLNRGLSRHGNASLIRRPSTLRRSYTEFDDNEDDDNKGDSASETVNKVEERISKIKERPVSLRDITEELTKISNSAGLTDNDAITLARTLSMAGSYSDKKDQPQPEGHYDEGDIGFSTSQANTLDDGEFASNMPINNTMTWPERSSLRRSRFNTYRIRSQEQEKEVEQSVDEMKNDDEERLKLTKNTIKVEIDPHKSPFRQQDEDSENMSSPGSIGDFQDIYNHYRQSSGEWEQEMGIEKEAEEVPVKVRNDTVEQDLELREGTTDMVKPSATDDNKETKRHRRRNGWTWLNNKMSREDDNEENQGDDENEENVDSQRMELDNSKKHYISLFNGGEKTEVSNKEEMNNSSTSTATSQTRQKIEKTFANLFRRKPHHKHDASSSPSSSPSSSPSIPNNDAVHVRVRKSKKLGNKSGREPVEPIVLRNRPRPHRHHHSRHGSQKISVKTLKDSQPQQQIPLQPQLEGAIEIEKKEESDSESLPQLQPAVSVSSTKSNSRDREEEEAKKKNKKRSNTTEISNQQHSKHVQKENTDEQKAQLQAPAQEQVQTSVPVQASAPVQNSAPVQTSAPVEASAQTQAPAAPPLKHTSILPPRKLTFADVKKPDKPNSPVQFTDSAFGFPLPLLTVSTVIMFDHRLPINVERAIYRLSHAKLSNSKRGLREQVLLSNFMYAYLNLVNHTLYMEQVAHDKEQQQQQQQQP

This assay has as its system PP2A-B55α. Kind of assay: Single alanine mutational scan, YFP-tagged interactors immunoprecipitated from HeLa cells, Western blot. The note with it: single alanine mutant of YFP-tagged ZDS1. It is filed as binding, human. For orientation: In western blotting, separated proteins are transferred to a membrane and probed.
B1 displayed an Experimental % binding of 113%.
Under B2 stands 75%; under B3, 15%.
Consider B4, for which the Experimental % binding is listed as 52%.
